# According to patent US20020022718A1, “Genes identified as required for proliferation of E. coli” (priority 1999, published 2002):
# B1: EcXA186: antisense clone insert to E. coli yagG (nucleic acid, listed as Escherichia coli)
# antisense: AGCAAAGCGAGCCGAACATGGTGGCGAGGCTGCCGTAAAGTAAAAACTGGGTCGCCAACTCCGGGTGATCCATCACGTATTTCACGAAGTAGAGCGTCGCCCCGCCGCGCACCACGTTGGAGCAGGTCGCCATCATCTTGAACGCGCACATGATGCGCCACTGGCTGTTGCCCAGC
# B2: EcXA185: antisense clone insert to E. coli rpsK (nucleic acid, listed as Escherichia coli)
# antisense: CCCTGACGATCAGTGATAGTCACGATGGTGTTGTTGAAAGAAGCATGGATATGAGCCACGCCGTCAG
# B3: EcXA184: antisense clone insert to E. coli cysC (nucleic acid, listed as Escherichia coli)
# antisense: GCAGTTCACCGGCACGCGCTTTCTTATATAAGCCTTTGGGATCGCGGGCTTCGCAAATCGCCAGCGGCGTATCGACAAACACTTCGATAAAGCGCCCTTCTCCTACGCGTTCGCGAACCATCTGGCGTTCGGCGCGGTGTGGCGAGATAAATGCGGTCAGCACCACCAGTCCGGCTTCAACCATCAAATTCGCCACTTCACCGACGCGACGGATATTCTCTTTACGATCGGCATCGCTAAAACCGAGATCGCTGCATAATCCGTGGCGAACATTGTCGCCATCCAGCAGATACGTACTGACGCCGAGTTTATGTAACGCCTCCTCCAGCGCCCCGGCGACCGTTGAT
# B4: EcXA187: antisense clone insert to E. coli b2271 (nucleic acid, listed as Escherichia coli)
# antisense: TNNCANNNNCNNNNNNNNNNNNNNNNCNCNNTNCCTAGANTNTCNANGTCTNCNCNCNCNTNNCCNNNCCCTTCNNNNCCNNNNANANGNNCNNCNCCCCCNNNCCCNNTTTTGTTTTGGAAANTCCGTTTCAGGAANAGCTTCTGAATCCCGANCGNTTGATAACTGNNGGCCAGAGTCATAATGCGCACCAATAATAATCAGCGGNCCATCGGCAGGACCATAATCAGCAACAATGNNNNGGTAGGGGCCACCCGTAATGGGGACCGTCCTGCGAGGTAACTCTGGCACCGCTACTGACAAAGACCTCTTTTATATATTCTGCGGGACCTATTCAGATTATCAATATTGTCNGGCACTACGTGGATGCACAAGTTTGTGTAAGATAACGAACTGNTTTTTCTAATTGCTCAGGACTTTGCGTGTCGGGGCCGTTGACGGTAATGCATTGACCCAGGGTTGGTAAAAAATAATCATAGGGAGTAAAAACACAAATAATATAATAAAAGCCAAGATTATTTTTTTCATATGCAAAATTATTAATGGGGTTGCGTTTGGTGAATCATTATNTTGCTATGGGTTTCGATATTGNGATTTTAATTAAAGATTAAGCANGGGATTATACCAAAAGA
# modifications: misc_feature (1)...(632): n = A,T,C or G
# notes: antisense clone insert to E. coli b2271
# B5: EcXA183: antisense clone insert to E. coli ftsI (nucleic acid, listed as Escherichia coli)
# antisense: GTTAGTAAAGCCGATGAGGTGAGCAGTCACTTCGCCGGACGGATAGTAACGGCGAGACTCTTCACGCAGATGAATCCCCGGCAGTTTCAGTTTTTTGATGTAGTCCGCCATGTCAGGGTTCACCTGACGCGCCAGATAAATAAAGCGCCCTTTCGGGTTGGCGTTAATGCGGGCTGAAAGCTGATCCAG
# B6: EcXA192: antisense clone insert to E. coli rbsC, rpsB (nucleic acid, listed as Escherichia coli)
# antisense: AGCGCAACAGCGGAAACCAGGGTAGCCAGTTTTTTCATGTTCATATTCAAGATGTCCTGTAGTCGTTATTACTGCTTTTTGTTGTCTACCAGCACCGCCAGCAAAATCACCACCGCTTTGACGATCATCTGGTAATAGGAGGAAACACCTAACAAATTCAATCCATTATTAAGGAAGCCAAGAATTAATGCGCCGATCAACGTCCCAACAATGCGACCTTT
# Tested on: Klebsiella pneumoniae
# Assay: Growth inhibition by induced E. coli antisense RNA in Klebsiella pneumoniae
# Assay type: cell-based
# Design: key: +: a positive in Table V below means that at least 10 fold more cells were required to observe a colony on the induced plate than on the non-induced plate; −: If there was no effect of antisense RNA expression in a microorganism, the clone is minus in Table V below
# Conditions: antisense RNA expression induced with IPTG, serial dilution plating
# Procedure, shortened: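 An E. coli antisense fragment (b3052 portion), or other E. coli-inhibitory antisense clones, was expressed in each species on IPTG induction (1 mM). Serial 10-fold dilutions were spotted on selective agar with or without IPTG overnight. The score is the log difference in maximal colony-forming dilution, induced vs uninduced (0 = no effect; positive = at least 10-fold).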
row,Molecule,"Sensitivity of K. pneumoniae to antisense nucleic acid (growth inhibition, induced vs. uninduced)"
1,B1,−
2,B2,−
3,B3,−
4,B4,+ (a positive in Table V below means that at least 10 fold more cells were required to observe a colony on the induced plate than on the non-induced plate)
5,B5,−
6,B6,−
